Assays:
[1] = target: CD37 (Leukocyte Antigen CD37, Tetraspanin-26) on cells (human) (UniProt P11049); test: FACS, 5 ug/mL biotinylated control antibody + streptavidin-PE, THP-1 cells (AML); background control
[2] = target: CD37 (Leukocyte Antigen CD37, Tetraspanin-26) on cells (human) (UniProt P11049); test: FACS, 5 ug/mL biotinylated control antibody + streptavidin-PE, SU-DHL-4 cells (DLBCL); background control
[3] = target: CD37 (Leukocyte Antigen CD37, Tetraspanin-26) on cells (human) (UniProt P11049); test: FACS, 5 ug/mL biotinylated control antibody + streptavidin-PE, Mino XCL cells (MCL); background control
[4] = target: CD37 (Leukocyte Antigen CD37, Tetraspanin-26) on cells (human) (UniProt P11049); test: FACS, 5 ug/mL biotinylated control antibody + streptavidin-PE, MOLM-13 cells (AML); background control
[5] = target: CD37 (Leukocyte Antigen CD37, Tetraspanin-26) on cells (human) (UniProt P11049); test: FACS, 5 ug/mL biotinylated control antibody + streptavidin-PE, WSU-DLCL-2 cells (DLBCL); background control
[6] = target: CD37 (Leukocyte Antigen CD37, Tetraspanin-26) on cells (human) (UniProt P11049); test: FACS, 5 ug/mL biotinylated control antibody + streptavidin-PE, Daudi cells (Burkitt's); background control
[7] = target: CD37 (Leukocyte Antigen CD37, Tetraspanin-26) on cells (human) (UniProt P11049); test: FACS, 5 ug/mL biotinylated control antibody + streptavidin-PE, MOLT-4 cells (ALL); background control
[8] = target: CD37 (Leukocyte Antigen CD37, Tetraspanin-26) on cells (human) (UniProt P11049); test: FACS, 5 ug/mL biotinylated control antibody + streptavidin-PE, Ramos cells (Burkitt's); background control
[9] = target: CD37 (Leukocyte Antigen CD37, Tetraspanin-26) on cells (human) (UniProt P11049); test: FACS, 5 ug/mL biotinylated control antibody + streptavidin-PE, Kasumi-1 cells (AML); background control
[10] = target: CD37 (Leukocyte Antigen CD37, Tetraspanin-26) on cells (human) (UniProt P11049); test: FACS, 5 ug/mL biotinylated control antibody + streptavidin-PE, Raji cells (Burkitt's); background control
[11] = target: CD37 (Leukocyte Antigen CD37, Tetraspanin-26) on cells (human) (UniProt P11049); test: FACS, 5 ug/mL biotinylated control antibody + streptavidin-PE, DOHH-2 cells (Follicular); background control
[12] = target: CD37 (Leukocyte Antigen CD37, Tetraspanin-26) on cells (human) (UniProt P11049); test: FACS, 5 ug/mL biotinylated control antibody + streptavidin-PE, REC-1 cells (MCL); background control
[13] = target: CD37 (Leukocyte Antigen CD37, Tetraspanin-26) on cells (human) (UniProt P11049); test: FACS, 5 ug/mL biotinylated control antibody + streptavidin-PE, Hel 92.1 cells (AML); filing calls it high isotype control background binding
[14] = target: CD37 (Leukocyte Antigen CD37, Tetraspanin-26) on cells (human) (UniProt P11049); test: FACS, 5 ug/mL biotinylated control antibody + streptavidin-PE, KG-1 cells (AML); filing calls it high isotype control background binding
[15] = target: CD37 (Leukocyte Antigen CD37, Tetraspanin-26) on cells (human) (UniProt P11049); test: FACS, 5 ug/mL biotinylated control antibody + streptavidin-PE, JVM-3 cells (CLL); background control
[16] = target: CD37 (Leukocyte Antigen CD37, Tetraspanin-26) on cells (human) (UniProt P11049); test: FACS, 5 ug/mL biotinylated control antibody + streptavidin-PE, RS4-11 cells (ALL); background control
[17] = target: CD37 (Leukocyte Antigen CD37, Tetraspanin-26) on cells (human) (UniProt P11049); test: FACS, 5 ug/mL biotinylated control antibody + streptavidin-PE, MV-4-11 cells (AML); background control
[18] = target: CD37 (Leukocyte Antigen CD37, Tetraspanin-26) on cells (human) (UniProt P11049); test: FACS, 5 ug/mL biotinylated control antibody + streptavidin-PE, Ramos RR XCL cells (Burkitt's); background control
[19] = target: CD37 (Leukocyte Antigen CD37, Tetraspanin-26) on cells (human) (UniProt P11049); test: FACS, 5 ug/mL biotinylated control antibody + streptavidin-PE, BDCM cells (AML); background control
[20] = target: CD37 (Leukocyte Antigen CD37, Tetraspanin-26) on cells (human) (UniProt P11049); test: FACS, 5 ug/mL biotinylated control antibody + streptavidin-PE, Mino cells (MCL); background control
[21] = target: CD37 (Leukocyte Antigen CD37, Tetraspanin-26) on cells (human) (UniProt P11049); test: FACS, 5 ug/mL biotinylated control antibody + streptavidin-PE, Granta-519 cells (MCL); filing calls it high isotype control background binding
[22] = target: CD37 (Leukocyte Antigen CD37, Tetraspanin-26) on cells (human) (UniProt P11049); test: FACS, 5 ug/mL biotinylated control antibody + streptavidin-PE, EoL-1 cells (AML); background control
[23] = target: CD37 (Leukocyte Antigen CD37, Tetraspanin-26) on cells (human) (UniProt P11049); test: FACS, 5 ug/mL biotinylated control antibody + streptavidin-PE, HL-60 cells (AML); background control

Sequence of CD37 (Leukocyte Antigen CD37, Tetraspanin-26) on cells (human) (P11049 whole entry): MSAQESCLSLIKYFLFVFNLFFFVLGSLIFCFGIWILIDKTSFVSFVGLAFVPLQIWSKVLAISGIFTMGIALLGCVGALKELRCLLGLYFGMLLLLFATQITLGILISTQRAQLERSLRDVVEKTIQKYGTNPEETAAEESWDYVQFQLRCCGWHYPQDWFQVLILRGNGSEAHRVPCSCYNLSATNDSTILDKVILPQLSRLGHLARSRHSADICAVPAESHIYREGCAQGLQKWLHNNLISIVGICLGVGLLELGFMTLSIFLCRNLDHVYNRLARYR

Substance: Isotype matched control antibody (biotinylated)
- Geometric Mean (fluorescence) [1]: 324
- Geometric Mean (fluorescence) [2]: 1050
- Geometric Mean (fluorescence) [3]: 200
- Geometric Mean (fluorescence) [4]: 240
- Geometric Mean (fluorescence) [5]: 1200
- Geometric Mean (fluorescence) [6]: 2040
- Geometric Mean (fluorescence) [7]: 1310
- Geometric Mean (fluorescence) [8]: 1150
- Geometric Mean (fluorescence) [9]: 188
- Geometric Mean (fluorescence) [10]: 1760
- Geometric Mean (fluorescence) [11]: 840
- Geometric Mean (fluorescence) [12]: 1010
- Geometric Mean (fluorescence) [13]: 4220
- Geometric Mean (fluorescence) [14]: 8190
- Geometric Mean (fluorescence) [15]: 1930
- Geometric Mean (fluorescence) [16]: 155
- Geometric Mean (fluorescence) [17]: 247
- Geometric Mean (fluorescence) [18]: 693
- Geometric Mean (fluorescence) [19]: 290
- Geometric Mean (fluorescence) [20]: 1480
- Geometric Mean (fluorescence) [21]: 15400
- Geometric Mean (fluorescence) [22]: 189
- Geometric Mean (fluorescence) [23]: 967
